Assay: soluble on expression in E. coli; label from the status in PepcDB or PDB records

| Sequence | soluble on expression in E. coli |
| --- | --- |
| MNPVEPADLVDIREQLHSGCHIVQAKGFSFLANRIINKELDAKDEKKYRKLLFDCFVVEEDILFRFLIDTLPILLIRGSNSPETLWEEFTLRAPRIRRIQRAFGMMISHCKPSFSKFLDVAARIDSEILTKICISSEFGYNFYQYIAVLSFTGLLSDSQKRLVGNCGLAQNVFLKHQPDLYPTGHESEHDPESFLRECSAEDLLSHPLHNIDPFQRHKLMRDRPAVLESKNLPNHILYLPYAVMLSQYKQVIVKLVEQSKMADHKLASENRVSGCRDTYSFAAPDFSDQDLTFETFMYHTIATGKVTSFIKYVENYHESLGILQKAHLLPALTVFLTHSSTNPSLQERICKLIALFVKKAPENADQFVLYFITLYQKPFFPIHRHLLLETIKDLFVNRFVISSAFGFLKITACLEGDRVRSLECLAEIIPKFTQLFEPMTSLCALKRDDGSDESFYAELHLLKECCKVTEDNEKALSKISNSLKECTGPRLAAIVDAVTDLIKCGVLDTIGARSMLTKRARQRGCEQSLGTYCRLLSTSTIPEENEEQARILRMSCIEELANLKQNDNHTVASEAWRSLGAFELDELEKGLKINPAQFATLFVKLRKEVQNGFIDFLSLCLHKEVESYQRPLYNTSAQDVNVSPLLTKVDTFKDKLIIENKNEPWFWSASLSLSASILQLTGPTNRAQASVRLLQSCLENVVPASSHDEMIRLMAGWRICIREVLHVLTESKSNDILWARDQIINTGRTSLTNKAESVDNIMMMLTALADAIDQQLRNIENDEQVEEVSKAQNPWLLSVYEFVATRLPKNLKEKRVAKNEPIYQLITHSNKSSLLTAIFCLRLLYLNPSVAAFYNDEDVGLTDDRMLVSLLQDSTKELKKEEIPDRKMMWVTAEAYGASQMSAKAFEVAYNIVIDEKTEKYEETELVDDESIEKFFNGLISSPKKDLKEIEQNNKKVLEKLWNNGNNEVRRKIYEGLAELALISGTGRSKMVIPAGKLPEGILKGILQLFDKKINVKPETLRNIIRCLVNHRRNDGRFLPPIDWMKFLERSEWTKADTDARLAMITLACEQNISEVIFHFSSSLTVKELLVLSENLRSVSKLFPRKEFTMILVQMAVQARKEDVETSKKLSMALSDLQKDSTVHNFLMKCLPKLFDISGITDPILNSIKDPDAFGGQISNCFDVWLEARRGEKMNIRRICDIFGKEESNSKKNAICALISHESRTLSRKMRFEKLLDVITASRIARTFGGSMQSFFSIFLSIIVSNNDTVEIPLCWFENQEHVPAMMIAAKQPFYKWIVEAPEMKSNAHHFGSFLSYYVDGPEKQYYEYWHTEGATDLLAMIVSAYPNETFPNLLTQTDEFWKSLLGIADVGK | not soluble |
| MGSDKIHHHHHHCGVEEKTEVQLLKEMPKPKAMTIDPSLSQKEATEMVHAAQRFYAFWDTGKEELIPQTVTENFFDHTLPKGRPQGTEGLKFAAQNFRKIVPNIHCEIEDLLVVGDKVTARLSFTGTHNDKKIDFFAIDILHVKDGKITEDWHLEDNLTLKQQLGLIAEE | not soluble |
| RATDPFIVKHPLTGEKTIIAGYPWFSDWGRDVMISFPGLVLIPRRFEDAKSILKNFSSNCRRGLIPNNFPAFGGEPVYNTVDASLWFIHSLSRYFAYTEDLLFLSDIWGTVEDIIDNYSKGTDFGIGMDSDYLIRQGPQLTWMDAKVNDIPVTPRAGKACEINALWYNALRTACRLGDLLGRDTSSYETLAAGVASNFERVFWNPENNCLHDIVSEDKAGNQIKDSSIRPNQIFAVSLPYTMLSPEKEKAIVDRVEKDLLTPFGLRTLSLDDPSYIGLYRGGSESRDSAYHNGTVWPWLLGPYVKAYRKVHNYSKKSLEDMRALLQGFDSHLETAGIGTISEVFDGDFPHSPGGCIAQAWSVAEILRAYVEDVLGIKP | not soluble |
| MALDVKKYPFIKSLDDELKKYGGGITLTDLLLNSTTLIDQAKDRIQKTKSGDELPHYVSYNEPVLVFYTTLLSLAILNDVKLIRRYAYAEAKQFRSLLHTENEENLLEISKLLDLKINRCDPIKFYLEKKRRIIQKEFCVHFIDYLKYTKDLKEDWKLSGQILHKGYVYLDKNQLIGLIAESIKSKIVEMIRPLNLKEIPEKLKSLIERRGI | soluble |
| MTGSDISHILKEGELEKRSDNLLQFWKRKTCVLTTDSLNIYTDQQKKNKSKELKLQSIKKVDCVEHTGKFVYFTIVTTDNKEIDFRCSDEKNCWNAVIAIALVNFQNRKAIQGFKTQKESENTSLGQQERCMARAP | not soluble |
| EEPEHSYDNSWGMGYGSSNSRSYGSQNSRSYGSPRTPKLPKHSNKPAIALNVGDRVNHEKYGLGTVTKVDKMAPADSVTIDFGSSGTVRLMLIGSVPMEKL | not soluble |
| MGSDKIHHHHHHMNRPLFDLDLLRALVMVADCGSFTTASARLHSTQSTVSQKVRRLEEIAGHRLLDRGTRDVRPTDAGVTVLSYARRMIALNDEMLEALSGATVALTIRLGVPDDFAAGRTTHALAAFKRDHPQVKLEVTCGLSRDICAAYDRGELDLVLIKQRRDSREAVVRWPEKLRWIDSARHPTIELDPVPLVVFPPRGLYRDDMIKAIEERGRRWRISFTTSSLSGIQAAVADGLGISVLPARAVTDDHVVLTDEHGGFAPIGNMDIAILHRPTADPMVSELTKALAAMLEHEPE | not soluble |
| MALRDSFNKIISYFDTDEVSEVEEPAVASVKRQQDAAQPASQQQKAQSHQYHQSASRPSQQQVQSGQNRRSGEENIHSLPTRRQSHNQQPAQEKTTIALKLPRKYEDAEEIVDLLIRNECVLIDFQYMLEAQARRCLDFIDGASKVLAGNLQKVGASMYLLTPINVIVDAEEMTLAANGQDVSFNYDMKRRLEHHHHHH | not soluble |
| MGSDKIHHHHHHMAGLERGELRQALLAEVKKVCAGQGPEAVSISKIGKSLGVSSGAPFRLFPSREHIFAALIESEMERLDATFERIWSCKTTDPVLRLTDICQAYVDHARTEPAMFRLAFSVSAKAMGAVKLQKIGEDVYEKVQRAVAACVPRHTTTDQVELKSYLLWSTIHGHVMLCMTGQMDDQSIDLPDEIVVASAVQGILKAG | not soluble |
| MSKLGKQDVYYFEGLDDILIAMMTTKDAVGTEPAFGEVVRLPIATKLGIKGNGTALEKWASSKMFRRVSRETKHEIALDHVGIPIAVMDEIKGLIAQSGVTFGKNTAREFPYFAFGFIGNIENGGKKAVWYPKTQLSNVIDEEYTTAEDETKIDDVTANFVSTGLTYNNVMYSSFDSNRDSASIELFEKFIAQPVYDEEQWKKLAGPSRGGGSELEHHHHHH | soluble |
| MTARAVRGTKDLFGKELRMHQRIVATARKVLEAAGALELVTPIFEETQVFEKGVGAATDIVRKEMFTFQDRGGRSLTLRPEGTAAMVRAYLEHGMKVWPQPVRLWMAGPMFRAERPQKGRYRQFHQVNYEALGSENPILDAEAVVLLYECLKELGLRRLKVKLSSVGDPEDRARYNAYLREVLSPHREALSEDSKERLELNPMRILDSKSERDQALLKELGVRPMLDFLGEEARAHLKEVERHLERLSVPYELEPALVRGLDYYVRTAFEVHHEEIGAQSALGGGGRYDGLSELLGGPRVPGVGFAFGVERVALALEAEGFGLPEEKGPDLYLIPLTEEAVAEAFYLAEALRPRLRAEYALAPRKPAKGLEEALKRGAAFAGFLGEDELRAGEVTLKRLATGEQVRLSREEVPGYLLQALG | soluble |
| MGSDKIHHHHHHMSLSNMQVFNDYIMPATIKSLDQMIDKFNAGSAGAIVLSSEGMTGDFMRESFFASLAAAQRRVNRKGANGAASATDLSELTGSKVKIAGGFGPVRYEPSQMTWLQRPTQQGVLAASTAFAELLLQDQLNTAIAALVAALSNNAAVTNDVSGSAGMTYGAINSAHAKFGDASGQIVANVMTGTVAHKLIGDNLTNGQRLFTAGNVNVIDILGKAVIVTDAPALYEAGTPNKSKVLGLVPGAATVGNTSDIITNVETTNGKERIETTFQADYSFSLGLKGYGWDEANGGASPTDAEIATGTNWDKVAEFDKMTAGVIAVADADQ | not soluble |
| GSHMSAEASARPLRVGSRVEVIGKGHRGTVAYVGATLFATGKWVGVILDEAKGKNDGTVQGRKYFTCDEGHGIFVRQSQIQVFEDGADTTSPETPDS | soluble |
| MGSDKIHHHHHHMLKLLKPKHRSILGIDISSSAVKILEISGSGEDICVEGYGREEIPASALEGNIIKDVDVVANCIKKLVERLKFTSKNVALAVPDSAVISKVVQINEGLTDLEMEELVVIEADKYIPYPIDEINLDFEVLGHSAKSSSLLDVLIVASRAENVNTRVEAAHRAGLEPKVVDVESYAVERSVQQIAQELPASGQDKIVAIVDIGANYTHLFVLHGMRLIFSREEKFGGMQLVEAIAEHYHMNLEQAIALKNQGKLPEDYESAVLEPFKDMILLQIKRTLQFFYSTSQHGFVDHILLAGGMARQSGLAALIQEQLGVTTTVANPLSHMSFGKKVNLDVINSDAPTLMVACGLALRHVE | not soluble |
| MLPKAFLSRMAELLGEEFPAFLKALTEGKRTYGLRVNTLKLPPEAFQRISPWPLRPIPWCQEGFYYPEEARPGPHPFFYAGLYYIQEPSAQAVGVLLDPKPGERVLDLAAAPGGKTTHLAARMGGKGLLLANEVDGKRVRGLLENVERWGAPLAVTQAPPRALAEAFGTYFHRVLLDAPCSGEGMFRKDREAARHWGPSAPKRMAEVQKALLAQASRLLGPGGVLVYSTCTFAPEENEGVVAHFLKAHPEFRLEDARLHPLFAPGVPEWGEGNPELLKTARLWPHRLEGEGHFLARFRKEGGAWSTPRLERPSPLSQEALRAFRGFLEEAGLTLEGPVLDRAGHLYLLPEGLPTLLGLKAPAPGLYLGKVQKGRFLPARALALAFGATLPWPEGLPRLALTPEDPRALAFATGEGVAWEGEDHPLALVVLKTAAGEFPLDFGKAKRGVLRPVGVGLRSHHHHHH | soluble |
| MSNDVYIIGAGETKFGELWDKSLRDLAVEAGLEAIKDANIYSKDLQMLYASNSLAGTINEQSNIAALAADFSGIAENHVPAVRVEASTASGGAAVREAYLAIKSGEYDVVMVGGVEKMTDIYGTEIIDVQSSILDREWESFNGATPAAMAAIAARRYMHDFNVEREAISMVAVNDHANASLNPDAQYRNKITVDQVLNSDPVAEPLNVFDCSPITDGASAIILASEGFVKKNRIDGVRIL | not soluble |
| MSTSCFPDVPLELTTRHPRPLQACPERHSQSTHDSLGIWVKRREEKPMERMSKDYDIVQIPRDVGYSDLPRKMEVGKPFEINGSVYVCEKRGGEIMKICSEDSGRTGVPVLNKGFYVVRRM | not soluble |
| MSHLVYVSRVVAAPIERVWPHLRDFNGLSAWHPGVADSRLEEGGRDDAPGTVRFLSLNPSGYVRERLLMLDDAGRSLRYAIIETDLPMRDYVAGVDLCPVTEGGGTFAQWWADFDVVAGANRDEVARLVGEGVFAAGLQALDQYLRDRQG | soluble |
| MSKPDDPAYHWNGAELDLDAYLARIGFAGERAPTLATLRELVYRHTTAIPFENLEAVLGRPVRLDLATLQDKLVHSRRGGYCYENAGLFAAALERLGFGVTGHTGRVTMGAGGLRPATHALLRVTTADDDRVWMCDVGFGRGPLRPYELRPQPDEFTLGDWRFRLERRTGELGTDLWVLHQFGRDGWVDRYTFTTAPQYRIDFEVGNHFVSTSPRSPFTTRPFLQRFHSDRHHVLDGLTLITERPDGSADIRALTPGELPEVINELFDIELPGPDLDALTTGSWLERVAAGTP | soluble |

Reference: the DeepSol protein solubility set
